Reference: publication PMC6035183, “ETS transcription factors induce a unique UV damage signature that drives recurrent mutagenesis in melanoma”

T1: ETS1 (ETS1ΔN280) (UniProt P27577 280-440)
T1 sequence: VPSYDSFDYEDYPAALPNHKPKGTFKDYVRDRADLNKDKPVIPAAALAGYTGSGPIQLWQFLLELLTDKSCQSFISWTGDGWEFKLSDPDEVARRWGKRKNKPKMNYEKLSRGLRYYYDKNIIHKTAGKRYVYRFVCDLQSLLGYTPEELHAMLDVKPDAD


Columns and labels:
ETS1 (ETS1ΔN280) [1] = molecular target: T1, ETS1 (ETS1ΔN280); experiment: EMSA; 4 pmol DNA, 0-32 pmol ETS1; two shifted bands at low ETS1; 25 mM Tris-Cl pH 7.9, 10% glycerol, 6 mM MgCl2, 0.5 mM EDTA, 60 mM KCl, 0.5 mM DTT, 200 ug/ml BSA; 40 ul, 40 min on ice; 8% native PAGE; settings: protein: recombinant; label: 5'-32P on S14 (TTCC strand); blunt
ETS1 (ETS1ΔN280) [2] = molecular target: T1, ETS1 (ETS1ΔN280); experiment: EMSA; 4 pmol DNA, 0-32 pmol ETS1; multiple shifted bands; 25 mM Tris-Cl pH 7.9, 10% glycerol, 6 mM MgCl2, 0.5 mM EDTA, 60 mM KCl, 0.5 mM DTT, 200 ug/ml BSA; 40 ul, 40 min on ice; 8% native PAGE; settings: protein: recombinant; label: 5'-32P on S15 (TTCC strand); blunt

Binder | binding result (ETS1 (ETS1ΔN280) [1]) | binding result (ETS1 (ETS1ΔN280) [2])
RPL13A promoter fragment (dsDNA, 5'-biotin on S13) DNA 1: GTCCAATCCGGACATTCTTCCGGTTGGACC DNA 2: GGTCCAACCGGAAGAATGTCCGGATTGGAC | binds | 
SDHD promoter fragment (dsDNA, 5'-biotin on S16) DNA 1: CTCGACTTCCGGTTCACCCAGCATTTCCTCTTCCCTGTT DNA 2: AACAGGGAAGAGGAAATGCTGGGTGAACCGGAAGTCGAG |  | binds
